Test results published in article PMC2756654 (Journal of molecular biology, 2008).

Target: the molecule itself
Experiment: unfolding kinetics by CD

B1: Human C6A/C111S SOD (Cu, Zn superoxide dismutase) (enzyme)
chain: not shown
Q: For B1, which koff is on record?
A: 0.000381 s⁻¹
